± gives the uncertainty stated by the source.
Assay: amyloid nucleation score (Sup35N fusion, yeast selection) (log enrichment); library NNK1; higher = more nucleation; inactive = no reads after selection
How it was run: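 Random libraries were run with three technical output replicates. In each, psi-negative yeast expressing Sup35N fused to peptides of 20 random codons were induced 24 hours with 100 μM copper sulfate and grown 7 days at 30°C on medium lacking adenine and uracil, and input and output plasmid inserts were Illumina-sequenced. The nucleation score is the DiMSum log enrichment of output over input reads, centred on the mode score of non-aggregating sequences, and sequences under 100 input reads were excluded.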

In order of rising amyloid nucleation score:
1. WNQADGIS  -1.66 ± 2.4
2. WSRYNSPCSKSMRYRSVSEA  -1.37 ± 1.1
3. WNDYAHILLKKRGGRYNLAG  -0.907 ± 0.74
4. WTMLDMFLFS  -0.872 ± 0.42
5. WPNTPSVTKWTYLFVLHPRM  -0.854 ± 0.95
6. WFGLTALGDTFYGLYFCKKL  -0.848 ± 0.78
7. WHSIADLNLVDYEICVNFFY  -0.75 ± 1.5
8. WADTIFCTSACNNVSGIRWG  -0.681 ± 0.58
9. WHRRLGNMFKIASRTELRMG  -0.672 ± 1.1
10. WHFSMFREWRSS  -0.649 ± 0.73
11. WNELCHQLNWCICRVAGFVK  -0.637 ± 0.62
12. WCRDIPWMVLNTVGRY  -0.547 ± 0.63
13. WDVIYVFFIHIYQSVGS  -0.48 ± 0.85
14. WSRAVVFMSIHFRNGLMQ  -0.444 ± 0.64
15. WGYDTHLLMNLRNVCIGFLR  -0.431 ± 0.7
16. WGWHNYWDGSVVVWRSATAH  -0.414 ± 0.75
17. WKNLGQV  -0.327 ± 0.39
18. WSKHLAYIVYDVQ  -0.325 ± 1
19. WGNFAVSWVFMEVNACRLRW  -0.323 ± 0.66
20. WTRCHK  -0.297 ± 0.35
21. WTAFGRFAVQTFFEKHM  -0.275 ± 0.24
22. WSNADEFGPD  -0.256 ± 0.51
23. WLNRMFFGDLCDMAIWKMCM  -0.217 ± 0.72
24. VYLACVSSPCLKS  -0.2 ± 0.79
25. WRLLCSITMDWF  -0.15 ± 0.22
26. VYVKYP  -0.125 ± 0.77
27. WNGLYRFCVVRAQGSFDET  -0.111 ± 0.32
28. WSGFQCSQDEWNLSMTIVRA  -0.097 ± 0.78
29. WEVERDTSSPSEIVINR  -0.063 ± 0.89
30. WFELWKSVRGMENYAYVARC  -0.043 ± 0.29
31. WSKYVESVRVETVGQVFQLV  -0.009 ± 0.51
32. WDRASYIEYRSFIEWRRLPK  -0.006 ± 0.55
33. WTRIDSSVYARKGFCAPRLP  0.021 ± 1.1
34. WAMSTFSVYSKRTFVARWDK  0.048 ± 0.29
35. WPIRVMMGYRLLGMDRNVFG  0.129 ± 0.68
36. WGIPMVGSRGPMCTKVGFRK  0.141 ± 0.35
37. WTLQMLAYWYLTFFFPSFVY  0.169 ± 0.37
38. WLVLHTNLMLGCSTRSMLCA  0.174 ± 0.5
39. WGLSQSLCHSRNNLHNWISG  0.207 ± 0.53
40. WRVSVKVVSAELEGMRNFAV  0.259 ± 0.49
41. WELVCISFLVRDTCVVI  0.263 ± 0.47
42. WQVNVLIIMCGSFLLVFDFQ  0.359 ± 0.45
43. WLVVFVDSVYARRWCELKFL  0.39 ± 0.36
44. WLYMRGPKVVRSCREITARA  0.413 ± 1.4
45. WMRKVIPTNGTVDIETSS  0.438 ± 0.33
46. WFSYYLLFRYNDNLSRAERS  0.456 ± 0.61
47. WKVVCNVPVVWFFLKRLHLL  0.498 ± 0.38
48. WIFSAMVYDSRKLTSYDKSE  0.543 ± 0.32
49. WEWSTGFRCC  0.566 ± 0.48
50. WESSAAVDTCTILKMTEKVG  0.579 ± 1.2
51. WRQYIDRNYVSCSASMLAWE  0.583 ± 0.43
52. WIFTREQAFFSDRCLAASSK  0.649 ± 0.76
53. WSRHELWWVPCCDRMLVLGH  0.746 ± 0.9
54. WHRSIWR  0.753 ± 0.56
55. WPDISCPPCNGDRMTVKWHV  0.836 ± 0.97
56. VYLWGPKVYRSDWMGRHFK  0.855 ± 0.72
57. WRHATSEMCFEGMLKCKVVT  0.903 ± 0.57
58. WCMATCLIMVCANYVICLVG  0.927 ± 0.55
59. WASEMRHGWRAHNIYVGEDC  0.937 ± 0.59
60. WLSMANHLIISCGSCRFRAF  0.973 ± 0.44
61. WQHFLFCKKKRVESCNVSTN  1.02 ± 0.76
62. WCNTMFWHS  1.09 ± 0.22
63. WMKVARMYRMESRIMNRRQW  1.13 ± 0.84
64. WRGISVQAVRRLCAKNKSSR  1.25 ± 0.85
65. WNEADWHMCH  1.34 ± 0.38
66. WLWSQLVESCGRVRCSGGSG  1.37 ± 0.5
67. WHEMKY  1.46 ± 0.13
68. WSNGF  1.89 ± 0.45
69. WILPNNRMVFVLYTEQWWTF  2.33 ± 0.11
70. WESDIFFMIGLVQRRQLTGP  2.91 ± 0.17
71. WHEHSYLENSIYITRIKINV  3.18 ± 0.15
72. WCCWVMCV  6.726 ± 0.061
73. WLFSPNVFVNFCFG  6.913 ± 0.055
74. WFPCVADINICPLGLYHSEG  8.033 ± 0.062

For WCISTIGWRTDGCD, the amyloid nucleation score was “inactive”.
In the case of WFNRSICSPNSHNDSSRFNQ, the amyloid nucleation score is reported as “inactive”.
For WFSRTPWYFVFRCNDDMDCS, the amyloid nucleation score was “inactive”.
In the case of WFYICVVSFDLGIKRRYRHR, the amyloid nucleation score is reported as “inactive”.
With WGRNMKYVRTGVGLINDLVR the amyloid nucleation score was “inactive”.
In the case of WIMRS, the amyloid nucleation score is reported as “inactive”.
For WKCLRYPY, the amyloid nucleation score was “inactive”.
For WLVHIHRTSSISYILCLDLG, the amyloid nucleation score was “inactive”.
With WMFIFRLTSTLYYHCC the amyloid nucleation score was “inactive”.
For WMSLIGKNMRMIMVIKKWAL, the amyloid nucleation score was “inactive”.
